Where a chain is given by its changes, count along the chain named.

T1: human IL2Rα Fc fusion protein (human, UniProt P01589 22-213, limits assumed)
T1 construct: also called Recombinant Fc-tagged human IL2Rα; not shown: Fc
T1 sequence (looked up): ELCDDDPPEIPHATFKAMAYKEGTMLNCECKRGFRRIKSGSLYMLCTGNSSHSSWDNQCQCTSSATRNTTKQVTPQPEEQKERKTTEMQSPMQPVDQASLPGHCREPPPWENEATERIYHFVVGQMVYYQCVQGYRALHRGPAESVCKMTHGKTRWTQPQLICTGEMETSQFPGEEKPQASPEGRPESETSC

T2: human IL2Rβ Fc fusion protein (human, UniProt P14784 27-239)
T2 construct: also called Recombinant Fc-tagged human IL2Rβ; not shown: Fc
T2 sequence (looked up): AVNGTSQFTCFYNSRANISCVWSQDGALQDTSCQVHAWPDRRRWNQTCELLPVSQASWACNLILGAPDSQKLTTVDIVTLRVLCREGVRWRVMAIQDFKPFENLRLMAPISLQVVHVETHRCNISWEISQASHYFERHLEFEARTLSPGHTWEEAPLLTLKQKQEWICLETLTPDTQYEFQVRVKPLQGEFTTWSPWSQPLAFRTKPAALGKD

T3: human IL2Rα (human, UniProt P01589 22-213, limits assumed)
T3 construct: also called IL2α; CD25
T3 sequence (looked up): T1 sequence (looked up)

T4: human IL2Rβ (human, UniProt P14784 27-239)
T4 construct: also called IL2β; CD122
T4 sequence (looked up): T2 sequence (looked up)

B1: EP003 (ligand)
chain: APTSSSTKKTQLQLEHLLLDLQMILNGINNYKNPKLTRMLTFKFYMPKKATELKHLQCLEEELKPLEEVLNLAQSKNFHLGVTDSISNAIVLARELKGSETTFMCEYADETATIVEFLNRWITFCQSIISTLT
notes: Produced in E. coli or mammalian cells; also called EP03; EP0003; not shown: C-terminal Flag and 6xHis tags
B2: EP226 (ligand)
chain: APTSSSTKKTQLQLEHLLLDLQMILNGINNYKNPKLTRMLTAKFYMPKKATELKHLQCLEEELKPLEEVLNLAQSKNFHLGVTDSISNAIVLARELKGSETTFMCEYADETATIVEFLNRWITFSQSIISTLTGSHHHHHH
B3: EP113 (ligand)
chain: APTSSSTKKTQLQLEHLLLDLQMILNGINNYKNPKLTYMLTRKFYMPKKATELKHLQCLEEELKPLEEVLNLAQSKNFHLRPRDLISNINVIVLELKGSETTFMCEYADETATIVEFLNRWITFSQSIISTLT
B4: EP126 (ligand)
chain: B3 chain with Y38N, R42F, Y45S
B5: EP115 (ligand)
chain: B3 chain with I28L, Y38S, R42F, Y45S
B6: EP108 (ligand)
chain: B3 chain with Y38R, R42H, Y45V
B7: EP123 (ligand)
chain: B3 chain with Y38V, R42F, Y45F
B8: EP105 (ligand)
chain: B3 chain with K35E, Y38I, R42P
B9: EP119 (ligand)
chain: B3 chain with Y38G, R42F, Y45S
B10: EP122 (ligand)
chain: B3 chain with Y38V, R42F, Y45P
B11: EP004 (ligand)
chain: B1 chain with G81C, V82P, S85T, S87E, A89I, I90T, A93I, R94Q
notes: Produced in E. coli or mammalian cells; not shown: C-terminal Flag and 6xHis tags

In the first assay the target is T1, human IL2Rα Fc fusion protein. Put plainly: ELISA, receptor-Fc coated, anti-Flag HRP. How it is done: (§1) Briefly, 384 well plate was immobilized with human IL2Rα and IL2Rβ Fc fusion proteins at a final concentration of 2 ug/mL in 1×PBS in total volume of 25 uL per well. The plate was incubated overnight at 4 C and blocked with 80 uL of superblock per well for 1 hour. […] Each dilution was added to IL2Rα or IL2Rβ wells in parallel in duplicates. The IL2 mutant binding was detected by adding 25 uL of anti-Flag HRP diluted at 1:5000 in 1×PBST. In between each step, the plate was washed three times with 1×PBST using a plate washer. The plate was then developed with 25 uL of TMB substrate for five minutes and stopped by adding 25 ul of 2N sulfuric acid. The plate was read at OD450 nm Biotek plate reader and the EC50 was analyzed with Prism 8.1 software to generate EC50 values (FIG. 15A for IL2Rα, and FIG. 15B for IL2Rβ, summarized in Table 9).
(An ELISA detects its analyte on a solid surface through an enzyme-linked reagent.)
As to B1, the EC50 – broadly, the concentration needed to bring the measured effect to its halfway point – was 538 nM.

The next assay addresses T2, human IL2Rβ Fc fusion protein. Description: ELISA, receptor-Fc coated, anti-Flag HRP. On the procedure: as §1
For B1, the midpoint of the response, the EC50, lay at 1.8 nM.

A further assay addresses T3, human IL2Rα. Description: SPR, IL2Rα captured on Protein A chip, IL2 at 100 nM. On the procedure:
The binding kinetics of IL2Rα-reduced binding clones to IL2Rα was assessed utilizing SPR technology with a Biacore T200, software version 2.0. For each cycle, 1 ug/mL of human IL2Rα was captured for 60 seconds at a flow rate of 10 uL/min on flow cell 2 in 1×HBSP buffer on a Protein A sensor chip. 100 nM of each HIS and Flag tag purified IL2 mutant was injected onto both the reference flow cell 1 and IL2Rα captured flow cell 2 for 150 seconds at a flow rate of 30 uL/min followed by washing for 300 seconds. The flow cells were then regenerated with Glycine pH 2.0 for 60 seconds at a flow rate of 30 uL/min. A HBSP+ buffer was included with each sample as a baseline control. The assay was set up in a 96-well format. The kinetics data was analyzed with Biacore T200 evaluation software 3.0. The specific binding response unit was derived from subtraction of binding to reference flow cell 1 from IL2Rα flow cell 2 and subtraction of buffer control. […] Relative response (RU) was determined for each IL2Rα-reduced binding clone (FIG. 4, Table 3).
Background: Surface plasmon resonance follows binding to a sensor surface in real time, without labels.
In the case of B2, the “RU (at 100 nM)” value is 3 RU and the “Relevant binding to WT IL2 (%)” value came to 2.11%.

As to B1, the “RU (at 100 nM)” value is 40.8 RU and the “Relevant binding to WT IL2 (%)” value worked out at 28.7%.

Regarding B3, the “RU (at 100 nM)” value was 2.6 RU and the “Relevant binding to WT IL2 (%)” value was 1.83%.

B4: the “RU (at 100 nM)” value turned out to be 2.6 RU and the “Relevant binding to WT IL2 (%)” value came to 1.83%.

On to B5, for which the “RU (at 100 nM)” value is 2.4 RU and the “Relevant binding to WT IL2 (%)” value was found to be 1.69%.

Turning to B6, the “RU (at 100 nM)” value turned out to be 2.4 RU and the “Relevant binding to WT IL2 (%)” value worked out at 1.69%.

On to B7, for which the “RU (at 100 nM)” value worked out at 5.3 RU and the “Relevant binding to WT IL2 (%)” value worked out at 3.73%.

As to B8, the “RU (at 100 nM)” value was determined as 2.1 RU and the “Relevant binding to WT IL2 (%)” value came out at 1.48%.

For the molecule B9, the “RU (at 100 nM)” value came to 2.7 RU and the “Relevant binding to WT IL2 (%)” value is 1.9%.

B10: the “RU (at 100 nM)” value amounted to 2.5 RU and the “Relevant binding to WT IL2 (%)” value is 1.76%.

Another assay addresses T4, human IL2Rβ. Description: SPR, receptor captured on Protein A chip, E. coli-produced IL2. How it is done: (§2) The assay was run with Biacore T200 control software version 2.0. For each cycle, 1 μg/mL of human IL2Rβ or IL2Rα was captured for 60 seconds at flow rate of 10 μL/min on flow cell 2 in 1×HBST buffer on Protein A sensor chip. Two-fold serial diluted HIS tag purified engineered IL2 mutant was injected onto both reference flow cell 1 and IL2Rβ or IL2Rα captured flow cell 2 for 150 seconds at flow rate of 30 μL/min followed by washing for 300 seconds. The flow cells were then regenerated with Glycine pH 2 for 40 seconds at a flow rate of 30 μL/mins. Eight concentration points from 0 to 100 nM were assayed for each IL2Rβ agonist clone 96-well plate format. The kinetics data was analyzed with Biacore T200 evaluation software 3000. The specific binding response unit was derived from subtraction of binding to reference flow cell 1 from target flow cell 2.
Regarding B1, the dissociation constant Kd (as a rule, a measure of binding affinity in units of concentration) was found to be 0.123 nM; the off-rate (koff) (commonly the first-order rate constant of dissociation) amounted to 0.00027 s⁻¹; the on-rate constant (kon) – broadly, a measure of how fast the partners come together – is 2.18e+06 M⁻¹ s⁻¹; the “relative activity IL2Rβ (KD: fold) against WT IL2” value (from here on “relative activity IL2Rβ (KD: fold)”) amounted to 35200 fold.

As to B11, the affinity, expressed as Kd, was 0.62 nM; the dissociation rate constant (koff) stood at 0.00189 s⁻¹; the kon amounted to 3.05e+06 M⁻¹ s⁻¹; the “relative activity IL2Rβ (KD: fold)” value came out at 7010 fold.

Another assay has as its target T3, human IL2Rα. The assay is described as above. On the procedure:
as §2
As to B1, binding was put at a Kd of 21.4 nM and the “relative activity IL2Rα (KD: fold) against WT IL2” value (“relative activity IL2Rα (KD: fold)” for short) is -2.3 fold.

In the case of B11, the Kd was determined as 40.5 nM and the “relative activity IL2Rα (KD: fold)” value was -4.3 fold.

The target in the next assay is T4, human IL2Rβ. Description: SPR, receptor captured on Protein A chip, mammalian-produced IL2. On the procedure: as §2
B1: the Kd worked out at 0.145 nM, the koff was determined as 0.000376 s⁻¹, the kon came to 2.59e+06 M⁻¹ s⁻¹ and the “relative activity IL2Rβ (KD: fold)” value is 6970 fold.

For B11, the dissociation constant Kd turned out to be 0.414 nM, the koff came to 0.00215 s⁻¹, the association rate constant (kon) amounted to 5.18e+06 M⁻¹ s⁻¹ and the “relative activity IL2Rβ (KD: fold)” value worked out at 2420 fold.

For another assay, the target named is T3, human IL2Rα. The description is as above. How it is done: as §2
For the molecule B1, the Kd was determined as 302 nM and the “relative activity IL2Rα (KD: fold)” value is -22.4 fold.

Consider B11, for which binding was characterised by a dissociation constant (Kd) of 28.8 nM and the “relative activity IL2Rα (KD: fold)” value is -2.1 fold.

In the next assay the target is T3, human IL2Rα. Put plainly: IL2Rα binding ELISA with E. coli culture supernatant of the clone; hFc bar as control (Example 2).
Take B2: the binding result is “no binding (tested: supernatant, concentration not given)”.

With B3, the binding result is “no binding (tested: supernatant, concentration not given)”.

Regarding B4, the binding result is “no binding (tested: supernatant, concentration not given)”.

B5: the binding result was “no binding (tested: supernatant, concentration not given)”.

With B6, the binding result is listed as “no binding (tested: supernatant, concentration not given)”.

On to B7, for which the binding result is “no binding (tested: supernatant, concentration not given)”.

Turning to B8, the binding result is given as “no binding (tested: supernatant, concentration not given)”.

B9: the binding result is listed as “no binding (tested: supernatant, concentration not given)”.

Turning to B10, the binding result is recorded as “no binding (tested: supernatant, concentration not given)”.

The values above are taken from patent US20230002466A1 (ELPIS BIOPHARMACEUTICALS, published 2023).
